According to FireProtDB (doi:10.1016/s0301-4622(00)00161-7):
Where “and” joins values, the source holds several entries; their conditions need not be identical. Identical values can stand only once.

B1: Gamma-crystallin S wild type, P06504 (protein)
chain: MSKAGTKITFFEDKNFQGRHYDSDCDCADFHMYLSRCNSIRVEGGTWAVYERPNFAGYMYILPRGEYPEYQHWMGLNDRLSSCRAVHLSSGGQYKLQIFEKGDFNGQMHETTEDCPSIMEQFHMREVHSCKVLEGAWIFYELPNYRGRQYLLDKKEYRKPVDWGAASPAVQSFRRIVE
B2: Gamma-crystallin S wild type, P22914 (protein)
chain: MSKTGTKITFYEDKNFQGRRYDCDCDCADFHTYLSRCNSIKVEGGTWAVYERPNFAGYMYILPQGEYPEYQRWMGLNDRLSSCRAVHLPSGGQYKIQIFEKGDFSGQMYETTEDCPSIMEQFHMREIHSCKVLEGVWIFYELPNYRGRQYLLDKKEYRKPIDWGAASPAVQSFRRIVE

Conditions: pH 7, Sodium phosphate 10 mM, whole UniProt chain shown
[1] = Homo sapiens, 20 °C, Thermal, DSC

Protein | denaturant midpoint (higher = more stable) (Bos taurus, 20 °C, GdnHCl, Fluorescence) | denaturant midpoint (higher = more stable) (Bos taurus, 20 °C, Urea, Fluorescence) | denaturant midpoint (higher = more stable) (Homo sapiens, 20 °C, GdnHCl, CD) | denaturant midpoint (higher = more stable) (Homo sapiens, 20 °C, GdnHCl, Fluorescence) | heat capacity change of unfolding [1] | unfolding free energy [1] | denaturant midpoint (higher = more stable) (Homo sapiens, 20 °C, Urea, CD) | denaturant midpoint (higher = more stable) (Homo sapiens, 20 °C, Urea, Fluorescence) | heat capacity change of unfolding (Homo sapiens, Thermal, DSC) | unfolding enthalpy (calorimetric) (Homo sapiens, Thermal, DSC)
B1 | 2.1 M and 1.8 M | 7 M and 6.6 M |  |  |  |  |  |  |  | 
B2 |  |  | 1.9 M | 2.6 M and 2.5 M | 1.79 kcal/mol/K and 0.84 kcal/mol/K and 1.08 kcal/mol/K | 20.1 kcal/mol and 10 kcal/mol and 11.5 kcal/mol | 7 M | 8 M and 7.6 M | 1.79 kcal/mol/K and 0.84 kcal/mol/K and 1.08 kcal/mol/K | 179 kcal/mol and 90.8 kcal/mol and 103 kcal/mol
